Results: paper doi:10.1101/2025.10.03.680245 (bioRxiv, 2025)

What was measured:
[1] = target: GFP-tagged Cdc11-capped recombinant septin octamers (budding yeast (S. cerevisiae), UniProt P32458;P32468;P32457;P25342); experiment: fluorescence microscopy of purified proteins in solution
[2] = target: the molecule itself; experiment: negative-stain transmission electron microscopy

Row | binding result [1] | Binder | binding result [2]
1 | binds | MBP-Bud4ΔN-HALO (domain or fragment, HaloTag Alexa-Fluor 660 fluorescent ligand on the HALO tag) MKPSDYISIWHIQEEEIKSNSPESIANSQFSQQSSITTASTVDSKKDNGSTSFKFKPRIVSRSRIYNPKSRVSSLNYYDNEDYILSNSEWNALDPMRRNTLISKRIQDNIRTQKGHAPLIRPSIMKLNGEDSGFQNHFLEVEQPQEHENIPLSTHLSEQDITTNVGLDEQKLPTNTQDEAEISIREIESAGDITFNRGDLLSLSFDEELGQDFANFLDALDHDSTSFNHGPDDSSSFQRDSSKKSFNSLWESSYELKPPPSIRKQPIAPDVLQKLLESDTKDDADLEKIREERITEPRTGLGIGMLKTPVKDVSIALAASIKGYEASFSDTDSRPEGMNNSDAITLNMFDDFEEDKMTPSTPVRSISPIKRHVSSPFKVVKAGNKQENNEINIKAEEEIEPMTQQETDGLKQDIPPLLAQTKDNVEAKEETITQLEEPQDVEQEFPDMGTLYLSIKAISTLALYGTKSHRATYAIVFDNGENVVQTPWESLPYDGNIRINKEFELPIDFKGKAETSSASSERDSYKKCVITLKCKYEKPRHELVEIVDKVPVGKSFFGKTKYKFEKKYVQKKPKQDEWDYLFAQDGSFARCEIEINEEFLKNVAFNTSHMHYNMINKWSRIADKIHGSKRLYELPRKAPHKVASLDVEACFLERTSAFEQFPKQFSLVNKIVSKYKLQQNIYKEGYLLQDGGDLKGKIENRFFKLHGSQLSGYHEISRKAKIDINLLKVTKVLRNEDIQADNGGQRNFTDWVLFNECFQLVFDDGERITFNAECSNEEKSDWYNKLQEVVELNVFHQPWVKKYCEKLAEEEKTRTTGHNLKQDFN | 
2 |  | Recombinant Cdc11-capped septin octamers (complex) chain 1: MSGIIDASSALRKRKHLKRGITFTVMIVGQSGSGRSTFINTLCGQQVVDTSTTILLPTDTSTEIDLQLREETVELEDDEGVKIQLNIIDTPGFGDSLDNSPSFEIISDYIRHQYDEILLEESRVRRNPRFKDGRVHCCLYLINPTGHGLKEIDVEFIRQLGSLVNIIPVISKSDSLTRDELKLNKKLIMEDIDRWNLPIYNFPFDEDEISDEDYETNMYLRTLLPFAIIGSNEVYEMGGDVGTIRGRKYPWGILDVEDSSISDFVILRNALLISHLHDLKNYTHEILYERYRTEALSGESVAAESIRPNLTKLNGSSSSSTTTRRNTNPFKQSNNINNDVLNPASDMHGQSTGENNETYMTREEQIRLEEERLKAFEERVQQELLLKRQELLQREKELREIEARLEKEAKIKQEE chain 2: MSAATATAAPVPPPVGISNLPNQRYKIVNEEGGTFTVMLCGESGLGKTTFINTLFQTVLKRADGQQHRQEPIRKTVEIDITRALLEEKHFELRVNVIDTPGFGDNVNNNKAWQPLVDFIDDQHDSYMRQEQQPYRTKKFDLRVHAVLYFIRPTGHGLKPIDIETMKRLSTRANLIPVIAKADTLTAQELQQFKSRIRQVIEAQEIRIFTPPLDADSKEDAKSGSNPDSAAVEHARQLIEAMPFAIVGSEKKFDNGQGTQVVARKYPWGLVEIENDSHCDFRKLRALLLRTYLLDLISTTQEMHYETYRRLRLEGHENTGEGNEDFTLPAIAPARKLSHNPRYKEEENALKKYFTDQVKAEEQRFRQWEQNIVNERIRLNGDLEEIQGKVKKLEEQVKSLQVKKSHLK chain 3: MSLKEEQVSIKQDPEQEERQHDQFNDVQIKQESQDHDGVDSQYTNGTQNDDSERFEAAESDVKVEPGLGMGITSSQSEKGQVLPDQPEIKFIRRQINGYVGFANLPKQWHRRSIKNGFSFNLLCVGPDGIGKTTLMKTLFNNDDIEANLVKDYEEELANDQEEEEGQGEGHENQSQEQRHKVKIKSYESVIEENGVKLNLNVIDTEGFGDFLNNDQKSWDPIIKEIDSRFDQYLDAENKINRHSINDKRIHACLYFIEPTGHYLKPLDLKFMQSVYEKCNLIPVIAKSDILTDEEILSFKKTIMNQLIQSNIELFKPPIYSNDDAENSHLSERLFSSLPYAVIGSNDIVENYSGNQVRGRSYPWGVIEVDNDNHSDFNLLKNLLIKQFMEELKERTSKILYENYRSSKLAKLGIKQDNSVFKEFDPISKQQEEKTLHEAKLAKLEIEMKTVFQQKVSEKEKKLQKSETELFARHKEMKEKLTKQLKALEDKKKQLELSINSASPNVNHSPVPTKKKGFLR chain 4: MDPLSSVQPASYVGFDTITNQIEHRLLKKGFQFNIMVVGQSGLGKSTLINTLFASHLIDSATGDDISALPVTKTTEMKISTHTLVEDRVRLNINVIDTPGFGDFIDNSKAWEPIVKYIKEQHSQYLRKELTAQRERFITDTRVHAILYFLQPNGKELSRLDVEALKRLTEIANVIPVIGKSDTLTLDERTEFRELIQNEFEKYNFKIYPYDSEELTDEELELNRSVRSIIPFAVVGSENEIEINGETFRGRKTRWSAINVEDINQCDFVYLREFLIRTHLQDLIETTSYIHYEGFRARQLIALKENANSRSSAHMSSNAIQR | binds
